Sequences and labels used below:
T1: Sac3 (residues 140-805) (S. cerevisiae, UniProt P46674 140-805)
T1 construct: Sac3, S. cerevisiae, residues 140-805 by the complex's name; the text says that residues 1-140 were deleted; also called Sac3 of TREX-2^140–805
T1 sequence (looked up): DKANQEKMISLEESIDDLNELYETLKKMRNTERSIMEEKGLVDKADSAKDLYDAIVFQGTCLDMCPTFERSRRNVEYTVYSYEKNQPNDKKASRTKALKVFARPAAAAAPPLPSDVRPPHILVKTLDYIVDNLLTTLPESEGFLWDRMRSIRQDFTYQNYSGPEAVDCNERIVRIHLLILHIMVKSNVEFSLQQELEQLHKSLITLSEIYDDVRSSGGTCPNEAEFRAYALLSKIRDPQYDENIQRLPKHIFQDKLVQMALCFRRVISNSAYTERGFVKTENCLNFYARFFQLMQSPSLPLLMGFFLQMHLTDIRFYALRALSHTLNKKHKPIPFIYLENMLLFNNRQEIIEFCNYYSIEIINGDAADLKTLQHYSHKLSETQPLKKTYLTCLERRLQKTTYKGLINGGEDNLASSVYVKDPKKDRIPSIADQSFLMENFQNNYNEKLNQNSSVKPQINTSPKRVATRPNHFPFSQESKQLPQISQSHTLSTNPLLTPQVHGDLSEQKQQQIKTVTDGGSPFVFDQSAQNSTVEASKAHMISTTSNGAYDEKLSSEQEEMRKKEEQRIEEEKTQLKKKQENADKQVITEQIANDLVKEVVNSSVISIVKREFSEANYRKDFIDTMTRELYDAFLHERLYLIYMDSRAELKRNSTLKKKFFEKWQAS

B1: Sem1 (natural protein, S. cerevisiae, UniProt O94742 1-89, looked up)
chain: MSTDVAAAQAQSKIDLTKKKNEEINKKSLEEDDEFEDFPIDTWANGETIKSNAVTQTNIWEENWDDVEVDDDFTNELKAELDRYKRENQ
notes: Sem1, S. cerevisiae; source: Sf9, baculovirus, co-expressed with GST-Sac3; in lysate and purified with the complex (glutathione Sepharose, heparin, SEC)
B2: Thp1 (natural protein, S. cerevisiae, UniProt Q08231 1-455, looked up)
chain: MDMANQLLDELAHGNFSHLTLNLSQNGREIAILQKQLTGFDDKQLETFVEQHPAMPNDTRFKIMCTSFLNYARDVDPWSAWSSSDLIFEFYQCLINCLINDNAPHIEMLIPVATRETEFIINLAGKLDSFHLQLHTRSHQFLSHISSILSRLFNSIKPPRGNASSTNIPGKQRILLYLVNKLNNIYFRIESPQLCSNIFKNFQPKSMLAHFNEYQLDQQIEYRYLLGRYYLLNSQVHNAFVQFNEAFQSLLNLPLTNQAITRNGTRILNYMIPTGLILGKMVKWGPLRPFLSQETIDNWSVLYKHVRYGNIQGVSLWLRQNERHLCARQLLIVLLEKLPMVTYRNLIKTVIKSWTTEWGQNKLPYSLIERVLQLSIGPTFEDPGAQEITIYNGIHSPKNVENVLVTLINLGLLRANCFPQLQLCVVKKTTMIQEIVPPVNERITKMFPAHSHVLW
notes: Thp1, S. cerevisiae; The theoretical mass of 195 kDa for TREX-2^1-805 fits whole chains of the four small subunits; source: Sf9, baculovirus, co-expressed with GST-Sac3; in lysate and purified with the complex (glutathione Sepharose, heparin, SEC)
B3: Cdc31 (natural protein, S. cerevisiae, UniProt P06704 1-161, looked up)
chain: MSKNRSSLQSGPLNSELLEEQKQEIYEAFSLFDMNNDGFLDYHELKVAMKALGFELPKREILDLIDEYDSEGRHLMKYDDFYIVMGEKILKRDPLDEIKRAFQLFDDDHTGKISIKNLRRVAKELGETLTDEELRAMIEEFDLDGDGEINENEFIAICTDS
notes: Cdc31, S. cerevisiae; source: Sf9, baculovirus, co-expressed with GST-Sac3; in lysate and purified with the complex (glutathione Sepharose, heparin, SEC)
B4: Sus1 (natural protein, S. cerevisiae, UniProt Q6WNK7 1-96, looked up)
chain: MTMDTAQLKSQIQQYLVESGNYELISNELKARLLQEGWVDKVKDLTKSEMNINESTNFTQILSTVEPKALEMVSDSTRETVLKQIREFLEEIVDTQ
notes: Sus1, S. cerevisiae; source: Sf9, baculovirus, co-expressed with GST-Sac3; in lysate and purified with the complex (glutathione Sepharose, heparin, SEC)

For this experiment, the target named is T1, Sac3 (residues 140-805). The experiment can be described thus: SEC-SAXS; on-line HPLC with Superdex 200 Increase 3.2/300, beamline BM29 (ESRF), 20 °C; mass from I(0) against a BSA standard. The settings on record: both partners purified.
In the case of B1, the binding result is “binds”. The same measure for B2: “binds”; for B3: “binds”.

Take B4: the binding result was “binds”.

The values are drawn from article PMC4991852, “The Sac3 TPR-like region in the Saccharomyces cerevisiae TREX-2 complex is more extensive but independent of the CID region” (Journal of Structural Biology, 2016).
